Assay results as given in patent US20060031961A1, “Aldehyde reductase” (priority 2004, published 2006).
Values joined by “and” are separate entries in the source; they are usually repeats but may differ in a detail not shown here. Identical values can stand only once. Each block holds one molecule with its values, some of them ahead of it.

Tested on: aldehyde reductase
Assay: Aldehyde reductase activity assay of expressed, purified proteins (oxidation of NADPH, change in A340)
Type: biochemical, Soybean (Glycine max L.)
Protocol: The activity assay measured oxidation of NADPH on a UV500 UV-Visible double-beam Spectrometer (Unicam) by monitoring the change in A340. The assay was performed at room temperature (approximately 23° C.) by adding all of the following reagents into a 1-mL 1-cm quartz cuvette: 500 μL of 200 mM HEPES-KOH pH 7.0, 200 μL of ddH2O, 100 μL of 1 mM NADPH, 25-50 μL aldehyde reductase extract in a 100 μL total volume of 100 mM HEPES-KOH pH 7.0, 10% glycerol buffer. After these samples were mixed and blanked and were incubated for three minutes and a pre-substrate rate was calculated, the assay was started by addition of the substrate to the sample cuvette (solvent was added to the reference cuvette). Several different substrates were tested with each enzyme preparation. These substrates included the following: 100 μL of 100 mM glyceraldehyde, 10 μL of 100 mM glyceraldehyde, or 100 μL of 0.5% […] hexanal in v/v ethanol, or 100 μL of a carbonyl compounds mixture (ULTRA Scientific, North Kingston, R.I.; formaldehyde, acetaldehyde, propanal, butantal, pentanal, hexanal, heptanal, octanal, nonanal, decanal, cyclohexanone, and crotonaldehdye (in methanol)). The carbonyl compounds mixture contains approximately 16 μmole total aldehyde per assay. Except for the inactivity seen in one aldehyde reductase extract with hexanal as the substrate, both of the aldehyde reductase enzymes were active with each of the different substrates tested (see Table 6). As a control, an extract of E. coli proteins without the expressed aldehyde reductase enzymes was prepared and assayed the same way. […] A Bradford assay was performed to determine protein concentrations in the extracts, and the enzymatic rates were calculated. Table 6 presents the activity (in μmol of NADPH oxidized and were NADPH specific (i.e., no activity was observed when NADH was used as the reductant)/min^−1/mg protein^−1) obtained for the purified protein extracts from the plasmids and the source of the DNA. Enzyme activity was calculated as follows: (ΔA340/min; after correction for pre-substrate addition rates)/(6.2×mg enzyme/mL reaction mixture).

[1] = substrate 1 mM glyceraldehyde, NADPH
[2] = substrate 10 mM glyceraldehyde, 100 μL of 1 mM NADH substituted for NADPH
[3] = substrate 10 mM glyceraldehyde, 100 μL of 10 mM ZnCl2 substituted for 100 μL ddH2O
[4] = substrate 10 mM glyceraldehyde, NADPH, room temperature, pH 7.0
[5] = substrate 100 μL 0.5% hexanal, NADPH
[6] = substrate 100 μL aldehyde mixture (carbonyl compounds mixture), NADPH

- Activity [1]: 0.14 μmol · min^−1 · mg protein^−1
- Activity [2]: 0.00 μmol · min^−1 · mg protein^−1
- Activity [3]: 0.28 μmol · min^−1 · mg protein^−1
- Activity [5]: 0.00 μmol · min^−1 · mg protein^−1
- Activity [6]: 0.58 μmol · min^−1 · mg protein^−1
B1: sls2c.pk027.a23:fis: soybean aldehyde reductase encoded by clone sls2c.pk027.a23:fis, expressed in E. coli and purified (protein)
chain: MAKSIKFFELNTGAKIPSLGLGTWQAEPGVVAEALTTAIQVGYRHIDCASAYKNQAEIGSALKKLFDDGVVKREDLWITSKLWCSDHAPEDVPKALDKTLQELQLDYLDLYLIHWPVRMKSGTFGLNKEYLEQPDIPNTWRAMEALYDSDKARAIGVSNFSSKKLQDLLDIARVVPAVNQVELHPGWQQPKLRAFCESKEIHLSGYSPLGSPAALKSDILKNPVVTEIAERLGKTPAQVALRWGLQAGHSVLPKSTNESRIKGNFDIFDWSIPQDLMTKISEIKQERLVKASFFVHETYGAYRSIEDFWDGEL
modifications: Glycine max
notes: soybean aldehyde reductase encoded by clone sls2c.pk027.a23:fis, expressed in E. coli and purified
- Activity [4]: 0.70 μmol · min^−1 · mg protein^−1 and 0.60 μmol · min^−1 · mg protein^−1 and 0.74 μmol · min^−1 · mg protein^−1

- Activity [1]: 0.58 μmol · min^−1 · mg protein^−1
- Activity [2]: 0.00 μmol · min^−1 · mg protein^−1
- Activity [3]: 0.45 μmol · min^−1 · mg protein^−1
- Activity [5]: 0.26 μmol · min^−1 · mg protein^−1
- Activity [6]: 0.55 μmol · min^−1 · mg protein^−1
B2: sr1.pk0003.c5: soybean aldehyde reductase encoded by clone sr1.pk0003.c5:fis, expressed in E. coli and purified (protein)
chain: MAKLIKFFELNTGAKIPSVGLGTWQAEPGVVAKAVTTAILVGYRHIDCAQAYNNQAEIGSALKKLFDDGVVKREDLWITSKLWCSDHASEDVPKALDKTLQDLQLDYLDLYLIHWPVRMKSGSVGFKKEYLDQPDIPSTWKAMEALYDSGKARAIGVSNFSSKKLQDLMNIARVPPAVNQVELHPGWQQPKLHAFCESKGVHLSGYSPLGSPGVLKSDILKNPVVIEIAEKLGKTPAQVALRWGLQTGHSVLPKSTNESRIKGNFDVFDWSIPEEVMDKFSEIKQDRLIKGTFFVDETYGAFKTVEELWDGEL
modifications: Glycine max
notes: soybean aldehyde reductase encoded by clone sr1.pk0003.c5:fis, expressed in E. coli and purified
- Activity [4]: 1.65 μmol · min^−1 · mg protein^−1 and 1.90 μmol · min^−1 · mg protein^−1 and 2.24 μmol · min^−1 · mg protein^−1
